The target in assay [1] is adipokinetic hormone receptor (AKHR) of Monochamus alternatus, overexpressed in Drosophila S2 cells (Monochamus alternatus).
Assay [2] concerns T1, adipokinetic hormone receptor (AKHR).
T1 construct: GFP-tagged AKHR in S2 cell lysate (AKHR-GFP fusion protein)
The assay can be described thus: Microscale thermophoresis with AKHR-GFP in S2 cell lysate; supported by calcium imaging in AKHR-expressing S2 cells ([…] asc-C9). It is filed as binding, Monochamus alternatus.

The text below walks through data of PMC12915204, “A Cold Stress‐Activated Endocrine Sentinel Chemical Hormone Promotes Insect Survival via Mitochondrial Adaptations Through the Adipokinetic Hormone Receptor” (Advanced Science, 2025).

Regarding “M. alternatus AKH peptide (adipokinetic hormone)”, in assay [1], the calcium mobilization (Fluo-4 imaging) in AKHR-expressing S2 cells, dose-response to AKH; no response with an empty vector amounted to 30 nM.
The Kd is the constant that tells how readily two partners part at equilibrium. asc-C9: the Kd in assay [2] came to 272 µM.
